Paper PMC13016609, “UV irradiation alters TFAM binding specificity and compaction of DNA”

Tests used:
TFAM (no MTS) [1] = target: T1, TFAM (no MTS) (Homo sapiens, UniProt Q00059 43-246); test: fluorescence anisotropy; Hill n 5.06±0.09; FP: 25 mM HEPES, 10 mM Mg(OAc)2, 25 mM NaOAc, 75 mM KOAc, pH 7.5, 1 nM DNA, TFAM 0-15 nM diluted on ice (read temperature not stated); AFM oligos: on ice, 2 min; details: protein: recombinant; label: 5' 6-FAM on strand 1 (FP); blunt
T1 sequence: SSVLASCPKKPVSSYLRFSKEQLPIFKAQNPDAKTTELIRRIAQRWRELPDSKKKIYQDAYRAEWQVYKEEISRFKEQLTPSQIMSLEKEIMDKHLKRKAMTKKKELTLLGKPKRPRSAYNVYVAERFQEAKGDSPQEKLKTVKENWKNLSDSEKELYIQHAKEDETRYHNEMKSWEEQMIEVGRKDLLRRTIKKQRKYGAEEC

TFAM (no MTS) [2] = target: T1, TFAM (no MTS); test: fluorescence anisotropy; +UVC; Hill n 4.76±0.11; FP: 25 mM HEPES, 10 mM Mg(OAc)2, 25 mM NaOAc, 75 mM KOAc, pH 7.5, 1 nM DNA, TFAM 0-15 nM diluted on ice (read temperature not stated); AFM oligos: on ice, 2 min; details: protein: recombinant; label: 5' 6-FAM on strand 1; blunt
TFAM (no MTS) [3] = target: T1, TFAM (no MTS); test: fluorescence anisotropy; Hill n 3.04±0.19; FP: 25 mM HEPES, 10 mM Mg(OAc)2, 25 mM NaOAc, 75 mM KOAc, pH 7.5, 1 nM DNA, TFAM 0-15 nM diluted on ice (read temperature not stated); AFM oligos: on ice, 2 min; details: protein: recombinant; label: 5' 6-FAM on strand 1; blunt
TFAM (no MTS) [4] = target: T1, TFAM (no MTS); test: fluorescence anisotropy; +UVC; Hill n 1.90±0.12; FP: 25 mM HEPES, 10 mM Mg(OAc)2, 25 mM NaOAc, 75 mM KOAc, pH 7.5, 1 nM DNA, TFAM 0-15 nM diluted on ice (read temperature not stated); AFM oligos: on ice, 2 min; details: protein: recombinant; label: 5' 6-FAM on strand 1; blunt
TFAM (no MTS) [5] = target: T1, TFAM (no MTS); test: fluorescence anisotropy; Hill n 2.84±0.14; FP: 25 mM HEPES, 10 mM Mg(OAc)2, 25 mM NaOAc, 75 mM KOAc, pH 7.5, 1 nM DNA, TFAM 0-15 nM diluted on ice (read temperature not stated); AFM oligos: on ice, 2 min; details: protein: recombinant; label: 5' 6-FAM on strand 1; blunt
TFAM (no MTS) [6] = target: T1, TFAM (no MTS); test: fluorescence anisotropy; +UVC; Hill n 2.27±0.26; FP: 25 mM HEPES, 10 mM Mg(OAc)2, 25 mM NaOAc, 75 mM KOAc, pH 7.5, 1 nM DNA, TFAM 0-15 nM diluted on ice (read temperature not stated); AFM oligos: on ice, 2 min; details: protein: recombinant; label: 5' 6-FAM on strand 1; blunt
TFAM (no MTS) [7] = target: T1, TFAM (no MTS); test: fluorescence anisotropy; Hill n 2.40±0.43; FP: 25 mM HEPES, 10 mM Mg(OAc)2, 25 mM NaOAc, 75 mM KOAc, pH 7.5, 1 nM DNA, TFAM 0-15 nM diluted on ice (read temperature not stated); AFM oligos: on ice, 2 min; details: protein: recombinant; label: 5' 6-FAM on strand 1; blunt
TFAM (no MTS) [8] = target: T1, TFAM (no MTS); test: fluorescence anisotropy; +UVC; Hill n 2.20±0.13; FP: 25 mM HEPES, 10 mM Mg(OAc)2, 25 mM NaOAc, 75 mM KOAc, pH 7.5, 1 nM DNA, TFAM 0-15 nM diluted on ice (read temperature not stated); AFM oligos: on ice, 2 min; details: protein: recombinant; label: 5' 6-FAM on strand 1; blunt
TFAM (no MTS) [9] = target: T1, TFAM (no MTS); test: fluorescence anisotropy; Hill n 2.77±0.17; FP: 25 mM HEPES, 10 mM Mg(OAc)2, 25 mM NaOAc, 75 mM KOAc, pH 7.5, 1 nM DNA, TFAM 0-15 nM diluted on ice (read temperature not stated); AFM oligos: on ice, 2 min; details: protein: recombinant; label: 5' 6-FAM on strand 1; blunt

B1: ND4_473 (dsDNA)
DNA 1: CGGCGCAGTCATTCTCATAATCGCCCACGGGCT
DNA 2: AGCCCGTGGGCGATTATGAGAATGACTGCGCCG
TFAM (no MTS) [1]
  Kd: 4.95 ± 0.03 nM

B2: ND4_473 +UVC (dsDNA)
DNA 1: CGGCGCAGTCATTCTCATAATCGCCCACGGGCT
DNA 2: AGCCCGTGGGCGATTATGAGAATGACTGCGCCG
modifications: UVC 1500 J/m2 photolesions (positions undefined)
TFAM (no MTS) [2]
  Kd: 5.36 ± 0.14 nM

B3: ND1_288 (dsDNA)
DNA 1: CTCCACACTAGCAGAGACCAACCGAACCCCCTT
DNA 2: AAGGGGGTTCGGTTGGTCTCTGCTAGTGTGGAG
TFAM (no MTS) [3]
  Kd: 3.41 ± 0.03 nM

B4: ND1_288 +UVC (dsDNA)
DNA 1: CTCCACACTAGCAGAGACCAACCGAACCCCCTT
DNA 2: AAGGGGGTTCGGTTGGTCTCTGCTAGTGTGGAG
modifications: UVC 1500 J/m2 photolesions (positions undefined)
TFAM (no MTS) [4]
  Kd: 6.12 ± 0.22 nM

B5: ND6_87 (dsDNA)
DNA 1: TTCCTACACTATTAAAGTTTACCACAACCACCA
DNA 2: TGGTGGTTGTGGTAAACTTTAATAGTGTAGGAA
TFAM (no MTS) [5]
  Kd: 5.2 ± 0.32 nM

B6: ND6_87 +UVC (dsDNA)
DNA 1: TTCCTACACTATTAAAGTTTACCACAACCACCA
DNA 2: TGGTGGTTGTGGTAAACTTTAATAGTGTAGGAA
modifications: UVC 1500 J/m2 photolesions (positions undefined)
TFAM (no MTS) [6]
  Kd: 7.63 ± 0.21 nM

B7: ND1_450 (dsDNA)
DNA 1: ACTCACCCTAGCATTACTTATATGATATGTCTC
DNA 2: GAGACATATCATATAAGTAATGCTAGGGTGAGT
TFAM (no MTS) [7]
  Kd: 4.33 ± 0.17 nM

B8: ND1_450 +UVC (dsDNA)
DNA 1: ACTCACCCTAGCATTACTTATATGATATGTCTC
DNA 2: GAGACATATCATATAAGTAATGCTAGGGTGAGT
modifications: UVC 1500 J/m2 photolesions (positions undefined)
TFAM (no MTS) [8]
  Kd: 6.36 ± 0.51 nM

B9: COX2_229 (dsDNA)
DNA 1: GCCCCCATTCGTATAATAATTACATCACAAGAC
DNA 2: GTCTTGTGATGTAATTATTATACGAATGGGGGC
TFAM (no MTS) [9]
  Kd: 3.94 ± 0.03 nM
